Laboratory results reported in IntAct's records for PubMed 22705394.

B1: Ras-related protein Rab-21 (Homo sapiens), Q9UL25 (parent)
chain: MAAAGGGGGGAAAAGRAYSFKVVLLGEGCVGKTSLVLRYCENKFNDKHITTLQASFLTKKLNIGGKRVNLAIWDTAGQERFHALGPIYYRDSNGAILVYDITDEDSFQKVKNWVKELRKMLGNEICLCIVGNKIDLEKERHVSIQEAESYAESVGAKHYHTSAKQNKGIEELFLDLCKRMIETAQVDERAKGNGSSQPGTARRGVQIIDDEPQAQTSGGGCCSSG

Variants of: B1
Details: with macf1_human MACF1, Q9UPN3

| effect of a mutation on the interaction | Variant |
| --- | --- |
| decreasing interaction | MAAAGGGGGGAAAAGRAYSFKVVLLGEGCVGKNSLVLRYCENKFNDKHITTLQASFLTKKLNIGGKRVNLAIWDTAGQERFHALGPIYYRDSNGAILVYDITDEDSFQKVKNWVKELRKMLGNEICLCIVGNKIDLEKERHVSIQEAESYAESVGAKHYHTSAKQNKGIEELFLDLCKRMIETAQVDERAKGNGSSQPGTARRGVQIIDDEPQAQTSGGGCCSSG [T33N] |

Variants of: B1
Details: with MACF1, Q9UPN3-1

| effect of a mutation on the interaction | Variant |
| --- | --- |
| decreasing interaction | MAAAGGGGGGAAAAGRAYSFKVVLLGEGCVGKNSLVLRYCENKFNDKHITTLQASFLTKKLNIGGKRVNLAIWDTAGQERFHALGPIYYRDSNGAILVYDITDEDSFQKVKNWVKELRKMLGNEICLCIVGNKIDLEKERHVSIQEAESYAESVGAKHYHTSAKQNKGIEELFLDLCKRMIETAQVDERAKGNGSSQPGTARRGVQIIDDEPQAQTSGGGCCSSG [T33N] |
